Source: PMC2133019 (The Journal of Cell Biology, 1998)
acyl = not defined here

Assays:
clathrin/AP cages = clathrin/AP cages (Bos taurus, UniProt P49951); test: NMR line-broadening with assembled clathrin/AP cages; assay type: binding, bovine; settings: 2.5 mM peptide
[1] = biological target: assembled clathrin/AP cages (bovine (purified from bovine brain)) (UniProt P49951); test: NMR line-broadening
[2] = 20 mg/ml cages, line-width with cages minus without

assembled clathrin/AP cages (bovine (purified from bovine brain)), sequence (P49951 whole entry, looked up): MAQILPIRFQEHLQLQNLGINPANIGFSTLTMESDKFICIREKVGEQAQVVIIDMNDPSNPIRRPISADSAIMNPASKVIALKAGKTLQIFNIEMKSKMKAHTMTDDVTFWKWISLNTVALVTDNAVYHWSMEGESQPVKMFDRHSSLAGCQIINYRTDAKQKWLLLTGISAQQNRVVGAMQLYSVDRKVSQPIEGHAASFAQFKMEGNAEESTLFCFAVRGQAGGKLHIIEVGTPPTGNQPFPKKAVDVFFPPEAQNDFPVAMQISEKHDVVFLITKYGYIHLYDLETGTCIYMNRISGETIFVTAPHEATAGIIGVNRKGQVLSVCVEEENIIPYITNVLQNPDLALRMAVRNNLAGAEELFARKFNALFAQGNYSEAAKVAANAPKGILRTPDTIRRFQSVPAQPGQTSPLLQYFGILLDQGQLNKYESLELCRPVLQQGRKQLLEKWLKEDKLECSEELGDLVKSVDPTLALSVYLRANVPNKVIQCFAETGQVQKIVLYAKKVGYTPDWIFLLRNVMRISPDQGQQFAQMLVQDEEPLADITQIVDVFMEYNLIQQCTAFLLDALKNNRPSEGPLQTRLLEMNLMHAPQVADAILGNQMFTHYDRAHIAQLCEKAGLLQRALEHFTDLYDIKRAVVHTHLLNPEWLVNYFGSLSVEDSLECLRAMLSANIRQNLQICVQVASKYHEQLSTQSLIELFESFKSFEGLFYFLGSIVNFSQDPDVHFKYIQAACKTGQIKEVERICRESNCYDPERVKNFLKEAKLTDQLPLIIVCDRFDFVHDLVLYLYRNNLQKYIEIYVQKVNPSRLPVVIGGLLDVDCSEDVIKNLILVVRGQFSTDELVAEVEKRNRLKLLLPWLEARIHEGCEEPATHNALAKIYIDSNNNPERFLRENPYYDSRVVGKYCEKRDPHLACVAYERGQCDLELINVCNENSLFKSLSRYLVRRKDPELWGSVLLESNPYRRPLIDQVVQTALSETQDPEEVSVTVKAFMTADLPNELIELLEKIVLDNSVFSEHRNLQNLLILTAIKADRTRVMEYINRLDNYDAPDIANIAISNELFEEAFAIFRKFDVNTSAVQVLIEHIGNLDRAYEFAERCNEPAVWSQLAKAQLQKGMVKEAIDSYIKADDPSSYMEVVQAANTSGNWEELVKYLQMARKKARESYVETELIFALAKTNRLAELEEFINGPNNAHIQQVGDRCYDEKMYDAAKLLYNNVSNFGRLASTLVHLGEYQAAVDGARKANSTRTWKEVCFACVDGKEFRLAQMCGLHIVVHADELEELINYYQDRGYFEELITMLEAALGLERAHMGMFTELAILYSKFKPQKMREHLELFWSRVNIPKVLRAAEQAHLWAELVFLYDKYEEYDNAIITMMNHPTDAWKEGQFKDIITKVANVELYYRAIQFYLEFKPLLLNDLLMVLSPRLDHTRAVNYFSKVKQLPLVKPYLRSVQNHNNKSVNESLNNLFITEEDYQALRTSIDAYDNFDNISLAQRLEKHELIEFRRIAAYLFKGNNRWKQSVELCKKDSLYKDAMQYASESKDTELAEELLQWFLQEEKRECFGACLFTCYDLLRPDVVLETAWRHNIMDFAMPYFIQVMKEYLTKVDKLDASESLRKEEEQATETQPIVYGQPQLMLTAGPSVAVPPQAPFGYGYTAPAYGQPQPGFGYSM
clathrin/AP cages, sequence (P49951 whole entry): as the sequence (P49951 whole entry, looked up) above
clathrin/AP cages, sequence (P04973 whole entry partner): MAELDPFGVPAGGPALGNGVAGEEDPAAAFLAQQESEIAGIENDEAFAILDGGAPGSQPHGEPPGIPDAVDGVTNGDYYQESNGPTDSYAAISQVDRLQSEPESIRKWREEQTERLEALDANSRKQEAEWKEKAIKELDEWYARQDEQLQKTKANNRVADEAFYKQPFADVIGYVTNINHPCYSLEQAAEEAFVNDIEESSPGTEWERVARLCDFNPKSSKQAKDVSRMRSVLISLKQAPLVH
clathrin/AP cages, sequence (P04975 whole entry partner): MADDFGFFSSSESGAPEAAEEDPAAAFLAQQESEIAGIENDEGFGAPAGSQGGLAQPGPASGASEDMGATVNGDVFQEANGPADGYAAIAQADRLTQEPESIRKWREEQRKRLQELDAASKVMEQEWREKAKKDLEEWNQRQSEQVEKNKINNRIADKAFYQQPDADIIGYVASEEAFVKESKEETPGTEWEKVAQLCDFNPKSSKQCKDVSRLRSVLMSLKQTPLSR

Row | Molecule | line-broadening Phe εH (clathrin/AP cages; [2]) [Hz] | line-broadening Thr10 γH (clathrin/AP cages; [2]) [Hz] | line-broadening Tyr εH (clathrin/AP cages; [2]) [Hz] | line-broadening Val γH1 (clathrin/AP cages; [2]) [Hz] | line-broadening Val γH2 (clathrin/AP cages; [2]) [Hz] | cage-induced line-broadening (in words) (clathrin/AP cages; 20 mg/ml clathrin/AP cages, pH 6.0) | line-broadening, Phe εH [1] [Hz] | line-broadening, Thr9 γH [1] [Hz] | line-broadening, Thr10 γH [1] [Hz] | line-broadening, Tyr εH [1] [Hz] | line-broadening, Val γH1 [1] [Hz] | line-broadening, Val γH2 [1] [Hz]
1 | FDNPVYQKTT (acyl-FDNPVYQKTT-OH; reading uncertain; also: acylated N-terminus, acyl group not given here) | 3.60 | 2.95 | 3.45 | 5.20 | 3.82 | pronounced increase in the line widths | – | – | – | – | – | –
2 | acyl-FDNPVYQKTT-OH (reading uncertain; also: acylated NH2 terminus) [wild-type LDL receptor internalization motif decapeptide …] | – | – | – | – | – | – | 3.6 | 3.18 | 2.95 | 3.45 | 5.2 | 3.82
